Target: RecA (Escherichia coli?) (UniProt P0A7G6)
Assay: cell_activity

RecA (Escherichia coli?), sequence (P0A7G6 2-353): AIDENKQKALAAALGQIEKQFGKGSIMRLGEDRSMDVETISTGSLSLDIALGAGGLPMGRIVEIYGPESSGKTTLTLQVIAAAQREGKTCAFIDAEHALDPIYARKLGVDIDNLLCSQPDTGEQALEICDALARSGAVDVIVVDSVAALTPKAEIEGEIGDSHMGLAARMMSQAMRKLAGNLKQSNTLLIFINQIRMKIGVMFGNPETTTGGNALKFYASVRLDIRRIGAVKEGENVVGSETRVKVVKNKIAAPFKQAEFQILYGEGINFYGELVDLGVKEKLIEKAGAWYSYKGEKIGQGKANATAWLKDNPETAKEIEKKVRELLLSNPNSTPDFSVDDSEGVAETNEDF

Substance: CFTR 491-nt fragment (exon 10 and flanking introns) ; CFTR deltaF508 genomic locus
- activity (homologous replacement after microinjection of RecA-coated DNA): > 0.00025 frequency

Substance: lacZ 276-mer probe ; pMC1lacXpA
- activity (blue NIH3T3 cells (6/168), 0% without RecA, D-loop also seen on agarose gel): 3.6%
